From PMC4721540, “Selective activators of protein phosphatase 5 target the auto-inhibitory mechanism” (Bioscience Reports, 2015)

B1: PPH-5 (protein phosphatase homologue), PP5 from nematode origin (enzyme, C. elegans, UniProt Q9NES8 1-496, looked up)
chain: MAATITDDIVATVLESIEEKSYEDEKEKAGMIKDEANQFFKDQVYDVAADLYSVAIEIHPTAVLYGNRAQAYLKKELYGSALEDADNAIAIDPSYVKGFYRRATANMALGRFKKALTDYQAVVKVCPNDKDARAKFDECSKIVRRQKFEAAISTDHDKKTVAETLDINAMAIEDSYDGPRLEDKITKEFVLQLIKTFKNQQKLHKKYAFKMLLEFYNYVKSLPTMVEITVPTGKKFTICGDVHGQFYDLCNIFEINGYPSETNPYLFNGDFVDRGSFSVETIFTMIGFKLLYPNHFFMSRGNHESDVMNKMYGFEGEVKAKYTQQMCDMFTETFCWLPLCHLINEKIFVCHGGLFKEDGVTLEDIRKTDRNRQPPDEGIMCDLLWSDPQPINGRSPSKRGVGCQFGPDVTSKWCETNGIEYVVRSHEVKPEGYEMHHNGQCFTVFSAPNYCDQMNNKGAFITITGDNLTPRFTPFDAVPHPKLPPMAYANSLFGFN
notes: PPH-5, the protein phosphatase 5 homologue of C. elegans; also called nematode PPH-5; PPH-5 (C. elegans); source: cloning and purification as described before [32-35]

Assays:
[1] = target: B1; experiment: AUC; sedimentation velocity with fluorescence detection; 300 nM labelled YFP–Hsp90, 3 μM PPH-5; 40 mM HEPES/KOH, pH 7.5, 20 mM KCl, 1 mM DTT; 20°C, 142000 g, 12 h; P5SAs at maximal soluble concentrations or 60 μM C-terminal Hsp90/DAF-21 peptide added where indicated; conditions: both partners purified
YFP-CeHsp90/DAF-21 = target: T1, YFP-CeHsp90/DAF-21 (C. elegans, UniProt Q18688 1-702); experiment: as above; conditions: both partners purified
T1 construct: Hsp90 of C. elegans (CeHsp90/DAF-21); Detected in the AUC by YFP fluorescence; also called YFP–Hsp90; YFP-tagged Hsp90; source: cloning and purification as described before [32-35]

Row | binding result [1] | binding result (YFP-CeHsp90/DAF-21) | Binder
1 | binds |  | AEEDASRMEEVD (C-terminal peptide of Hsp90/DAF-21 of C. elegans; also called MEEVD peptide; MEEVD-containing peptide; source: bought: Biomatik) [C-terminal Hsp90/DAF-21 peptide (AEEDASRMEEVD)]
2 |  | binds | B1
